# Measured values published in patent publication US20110263824A1 (JAPAN TOBACCO, published 2011).
# Numbering of substitutions follows the chain as printed.
# B1: TM2 R104EK141E (other)
# chain: MSDVQSSLTGTWYNELNSKMELTANKDGTLTGKYLSKVGDVYVPYPLSGRYNLQPPAGQGVALGWAVSWENSKIHSATTWSGQFFSESSPVILTQWLLSSSTAEGDVWESTLVGNDSFTKTAPTEQQIAHAQLHCRAPRLE
# notes: TM2 double mutant; also called R104-K141
# B2: TM2 K141E (other)
# chain: B1 chain with E104R
# notes: TM2 mutant
# B3: TM2 R104E (other)
# chain: B1 chain with E141K
# notes: TM2 mutant
# B4: TM2 K26A (other)
# chain: B1 chain with K26A, E104R, E141K
# notes: TM2 mutant
# B5: tamavidin 2 (wild type) (other)
# chain: B1 chain with E104R, E141K
# notes: also called TM2; TM2WT
# B6: TM2 K73Q (other)
# chain: B1 chain with K73Q, E104R, E141K
# notes: TM2 mutant
# Biological target: fibronectin
# Assay: summary of Example 1-10: ELISA on fibronectin-immobilized plate
# Description: (§1) The fibronectin-binding of each low-pI TM2 was compared using a microplate to which fibronectin was immobilized. The concentration of fibronectin was adjusted to 50 μg/mL with a fixation solution exclusive for a New ELISA plate, and the fibronectin solution (50 μL) was added to each New ELISA plate (Sumitomo Bakelite), followed by shaking at 37° C. for 4 hours for immobilization. Then, the plate was washed with 0.1% Triton X-100-containing PBS (300 μL) three times and was then dried naturally.
# (§2) TM2, K26A, K73Q, R104E, K141E, and R104EK141E mutants (50 μL each) were each added to the corresponding well of the plate and left at room temperature for 1 hour. The plate was washed with 300 μL/well of PBST (PBS buffer containing 0.1% Tween 20) three times. Then, biotinylated HRP diluted 5000 times with PBST containing 0.5% BSA was added at 50 μL/well and allowed to react with the mutant at room temperature for 1 hour. After washing with 300 μL/well of PBST three times, 50 μL/well of 1-Step Ultra TMB-ELISA solution was added to each well for color development.
row,Binder,amount of fibronectin binding relative to wild type TM2
1,B1,10 to 20 % of wild type TM2
2,B2,10 to 20 % of wild type TM2

# Biological target: fibronectin
# Assay: ELISA on fibronectin-immobilized plate, biotinylated HRP detection
# Description: as §1, §2
row,Binding of fibronectin (A450),Binder
1,0.11 A450,B1
2,0.7 A450,B3
3,0.21 A450,B2
4,0.85 A450,B4
5,1.34 A450,B5
6,0.98 A450,B6
